Where “and” joins values, the source holds several entries; their conditions need not be identical. Equal values may be shown once.
B1: CaNce103p, carbonic anhydrase from Candida albicans, wild-type full length (enzyme)
chain: MGRENILKYQLEHDHESDLVTEKDQSLLLDNNNNLNGMNNTIKTHPVRVSSGNHNNFPFTLSSESTLQDFLNNNKFFVDSIKHNHGNQIFDLNGQGQSPHTLWIGCSDSRAGDQCLATLPGEIFVHRNIANIVNANDISSQGVIQFAIDVLKVKKIIVCGHTDCGGIWASLSKKKIGGVLDLWLNPVRHIRAANLKLLEEYNQDPKLKAKKLAELNVISSVTALKRHPSASVALKKNEIEVWGMLYDVATGYLSQVEIPQDEFEDLFHVHDEHDEEEYNPH
notes: Carbonic anhydrase Nce103p of Candida albicans, full length (C-terminus at residue 281); gene amplified from genomic DNA of strain HE109; stop codon kept so that no His-tag is attached; purified on Ni through four natural C-terminal histidines; also called wt; source: E. coli BL23(DE3), purified (HiTrap Ni column, MonoQ)
B2: Δ29_CaNce103p, CaNce103p lacking the first 29 amino acids (domain or fragment)
chain: DNNNNLNGMNNTIKTHPVRVSSGNHNNFPFTLSSESTLQDFLNNNKFFVDSIKHNHGNQIFDLNGQGQSPHTLWIGCSDSRAGDQCLATLPGEIFVHRNIANIVNANDISSQGVIQFAIDVLKVKKIIVCGHTDCGGIWASLSKKKIGGVLDLWLNPVRHIRAANLKLLEEYNQDPKLKAKKLAELNVISSVTALKRHPSASVALKKNEIEVWGMLYDVATGYLSQVEIPQDEFEDLFHVHDEHDEEEYNPH
notes: Carbonic anhydrase Nce103p of Candida albicans (strain HE109) lacking the first 29 amino acids; C-terminus at residue 281; no tag (stop codon kept); source: E. coli BL23(DE3), purified (HiTrap Ni column, MonoQ)

Target: the molecule itself
Assay: SEC; HR200 Increase (Superdex 200 Increase 10/300 GL) column in 10 mM Tris-Cl, pH 8, 20 mM β-mercaptoethanol, 0.5 ml/min, calibrated with molecular weight markers; for Δ29 100 μl of 1.0 mg/ml injected; self-association

Protein | stoichiometry N
B1 | 2 and 4
B2 | 4 and 2

Source: PMC6203986, “Crystal structure of carbonic anhydrase CaNce103p from the pathogenic yeast Candida albicans” (BMC Structural Biology, 2018)
